Results published in patent US20240108738A1 (Bicycle, published 2024).
Numbered stars: 1 amine (or outer) side, 2 acyl side, 3 side chain; on linkers, the order of the positions; unused ones are H or OH. Bridge positions count the residues as written; N and C are the ends. Square brackets hold non-standard residues; d marks the D form. Ends that are not written are not given here. * marks the point of attachment. TATA = O=C(CC[*:1])N1CN(C(=O)CC[*:2])CN(C(=O)CC[*:3])C1; hArg = N=C(N)NCCCC[C@H](N)C(=O)O; tBuAla = CC(C)(C)C[C@H](N)C(=O)O; 4Pal = N[C@@H](Cc1ccncc1)C(=O)O; Cha = N[C@@H](CC1CCCCC1)C(=O)O; dCha = N[C@H](CC1CCCCC1)C(=O)O; Agb = N=C(N)NCC[C@H](N)C(=O)O; Cba = N[C@@H](CC1CCC1)C(=O)O; Chg = N[C@H](C(=O)O)C1CCCCC1; Tle = CC(C)(C)[C@H](N)C(=O)O; dNva = CCC[C@@H](N)C(=O)O; NMeA = CN[C@@H](C)C(=O)O; Pent4ynoyl = C#CCCC(=O)*

target: T1, Human NKp46 Fc tag (Acro Biosystems, NC1-H5257) (human, UniProt O76036 22-255); assay: SPR Method 1 and/or 2
T1 construct: bought; also called Fc-tagged human NKp46
T1 sequence (O76036 22-255 limits assumed): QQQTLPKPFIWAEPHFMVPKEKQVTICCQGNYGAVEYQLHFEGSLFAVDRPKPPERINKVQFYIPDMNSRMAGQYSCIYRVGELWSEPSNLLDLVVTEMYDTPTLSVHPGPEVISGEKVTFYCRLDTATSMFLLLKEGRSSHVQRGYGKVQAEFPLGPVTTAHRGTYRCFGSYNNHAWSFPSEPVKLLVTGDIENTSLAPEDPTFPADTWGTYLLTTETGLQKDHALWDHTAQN
Procedure: The SPR analysis was run at 25° C. and a flow rate of 50 μl/min with 60 seconds association and 200-400 seconds dissociation time. Data were corrected for DMSO excluded volume effects. All data were double-referenced for blank injections and reference surface using standard processing procedures and data processing and kinetic fitting were performed using Scrubber software, version 2.0c (BioLogic Software). Data were fitted using simple 1:1 binding model allowing for mass transport effects where appropriate.
For analysis of peptide binding, a Biacore 8k+ instrument was used with a CM5 chip (Cytiva). All experiments were carried out at 25° C. Anti-human IgG (Fc) antibody (Cytiva) was immobilized on all flow cells by standard amine coupling chemistry. The running buffer was HBS-N(Cytiva, 10 mM HEPES, 0.15 M NaCl, pH 7.4) and the flow rate was 10 μL/min. The carboxymethyl dextran surface was activated with a 1:1 ratio of 0.4 M 1-ethyl-3-(3-dimethylaminopropyl) carbodiimide hydrochloride (EDC)/0.1 M N-hydroxy succinimide (NHS) (Cytiva) for 420s. […] Residual activated groups were blocked with a 420 s injection of 1 M ethanolamine (pH 8.5). The final surface density was 3000-5000 RU. Fc-tagged human NKp46 was diluted to 0.1 μM in HBS-N and was captured on flow cell 2 only of the sensor chip at a flow rate of 10 μL/min to 500-1000 RU. The buffer was then changed to PBS-P+(Cytiva) supplemented with 2% DMSO. […] The flow rate was 50 μL/min with 60 s association and 400 s dissociation. Data were corrected for DMSO volume exclusion effects. All data were double-referenced against blank injections and reference surface response using standard processing procedures. Data processing and kinetic fitting was performed using Biacore Insight Evaluation Software with Extended Screening and Characterization Extension (Cytiva). Data were fitted using steady state affinity 1:1 binding model to determine KD. Data were fitted using kinetic 1:1 binding model to determine kinetic constants where appropriate.

Kd [nM] | Binder
22 | ACYLPDYLCGDEYCA-NH2 (linker 2-9-14 via TATA; also: scaffold: TATA, TATB or TBMT, scaffold TATA) [BCY18470]
3.9 | Ac-CY[Cba]PDYLC[dNva]DEYC-NH2 (linker 1-8-13 via TATA; SMILES CCC[C@H]1NC(=O)[C@@H]2CSCCC(=O)N3CN(CN(C3)C(=O)CCSC[C@H](NC(C)=O)C(=O)N[C@@H](Cc3ccc(O)cc3)C(=O)N[C@@H](CC3CCC3)C(=O)N3CCC[C@H]3C(=O)N[C@@H](CC(=O)O)C(=O)N[C@@H](Cc3ccc(O)cc3)C(=O)N[C@@H](CC(C)C)C(=O)N2)C(=O)CCSC[C@@H](C(N)=O)NC(=O)[C@H](Cc2ccc(O)cc2)NC(=O)[C@H](CCC(=O)O)NC(=O)[C@H](CC(=O)O)NC1=O, scaffold TATA) [BCY18444]
10 | Ac-CY[Cba]PDYLC[dCha]DEYC-NH2 (linker 1-8-13 via TATA; SMILES CC(=O)N[C@H]1CSCCC(=O)N2CN3CN(C2)C(=O)CCSC[C@H](NC(=O)[C@H](CC(C)C)NC(=O)[C@H](Cc2ccc(O)cc2)NC(=O)[C@H](CC(=O)O)NC(=O)[C@@H]2CCCN2C(=O)[C@H](CC2CCC2)NC(=O)[C@H](Cc2ccc(O)cc2)NC1=O)C(=O)N[C@H](CC1CCCCC1)C(=O)N[C@@H](CC(=O)O)C(=O)N[C@@H](CCC(=O)O)C(=O)N[C@@H](Cc1ccc(O)cc1)C(=O)N[C@H](C(N)=O)CSCCC3=O, scaffold TATA) [BCY19683]
7.7 | Ac-CY[Cba]PNYLC[dA]DEYC-NH2 (linker 1-8-13 via TATA; SMILES CC(=O)N[C@H]1CSCCC(=O)N2CN3CN(C2)C(=O)CCSC[C@H](NC(=O)[C@H](CC(C)C)NC(=O)[C@H](Cc2ccc(O)cc2)NC(=O)[C@H](CC(N)=O)NC(=O)[C@@H]2CCCN2C(=O)[C@H](CC2CCC2)NC(=O)[C@H](Cc2ccc(O)cc2)NC1=O)C(=O)N[C@H](C)C(=O)N[C@@H](CC(=O)O)C(=O)N[C@@H](CCC(=O)O)C(=O)N[C@@H](Cc1ccc(O)cc1)C(=O)N[C@H](C(N)=O)CSCCC3=O, scaffold TATA) [BCY18441]
6.3 | Ac-CY[Cba]PDYLC[dV]DEYC-NH2 (linker 1-8-13 via TATA, scaffold TATA) [BCY18443]
7.1 | Ac-CY[Cba]PQYLC[dA]DEYC-NH2 (linker 1-8-13 via TATA; SMILES CC(=O)N[C@H]1CSCCC(=O)N2CN3CN(C2)C(=O)CCSC[C@H](NC(=O)[C@H](CC(C)C)NC(=O)[C@H](Cc2ccc(O)cc2)NC(=O)[C@H](CCC(N)=O)NC(=O)[C@@H]2CCCN2C(=O)[C@H](CC2CCC2)NC(=O)[C@H](Cc2ccc(O)cc2)NC1=O)C(=O)N[C@H](C)C(=O)N[C@@H](CC(=O)O)C(=O)N[C@@H](CCC(=O)O)C(=O)N[C@@H](Cc1ccc(O)cc1)C(=O)N[C@H](C(N)=O)CSCCC3=O, scaffold TATA) [BCY18442]
9 | Ac-CY[Cba]PDYLC[dF]DEYC-NH2 (linker 1-8-13 via TATA, scaffold TATA) [BCY19682]
149 | Ac-CY[Cba][NMeA]DYLC[dA]DEYC-NH2 (linker 1-8-13 via TATA; SMILES CC(=O)N[C@H]1CSCCC(=O)N2CN3CN(C2)C(=O)CCSC[C@H](NC(=O)[C@H](CC(C)C)NC(=O)[C@H](Cc2ccc(O)cc2)NC(=O)[C@H](CC(=O)O)NC(=O)[C@H](C)N(C)C(=O)[C@H](CC2CCC2)NC(=O)[C@H](Cc2ccc(O)cc2)NC1=O)C(=O)N[C@H](C)C(=O)N[C@@H](CC(=O)O)C(=O)N[C@@H](CCC(=O)O)C(=O)N[C@@H](Cc1ccc(O)cc1)C(=O)N[C@H](C(N)=O)CSCCC3=O, scaffold TATA) [BCY18440]
9.4 | Ac-CY[Cba]PDYLC[dK](Pent4ynoyl)DEYC-NH2 (linker 1-8-13 via TATA; SMILES C#CCCC(=O)NCCCC[C@H]1NC(=O)[C@@H]2CSCCC(=O)N3CN(CN(C3)C(=O)CCSC[C@H](NC(C)=O)C(=O)N[C@@H](Cc3ccc(O)cc3)C(=O)N[C@@H](CC3CCC3)C(=O)N3CCC[C@H]3C(=O)N[C@@H](CC(=O)O)C(=O)N[C@@H](Cc3ccc(O)cc3)C(=O)N[C@@H](CC(C)C)C(=O)N2)C(=O)CCSC[C@@H](C(N)=O)NC(=O)[C@H](Cc2ccc(O)cc2)NC(=O)[C@H](CCC(=O)O)NC(=O)[C@H](CC(=O)O)NC1=O, scaffold TATA) [BCY19684]
47 | Ac-C[4Pal][Cba]PDYLC[dA]DEYC-NH2 (linker 1-8-13 via TATA; SMILES CC(=O)N[C@H]1CSCCC(=O)N2CN3CN(C2)C(=O)CCSC[C@H](NC(=O)[C@H](CC(C)C)NC(=O)[C@H](Cc2ccc(O)cc2)NC(=O)[C@H](CC(=O)O)NC(=O)[C@@H]2CCCN2C(=O)[C@H](CC2CCC2)NC(=O)[C@H](Cc2ccncc2)NC1=O)C(=O)N[C@H](C)C(=O)N[C@@H](CC(=O)O)C(=O)N[C@@H](CCC(=O)O)C(=O)N[C@@H](Cc1ccc(O)cc1)C(=O)N[C@H](C(N)=O)CSCCC3=O, scaffold TATA) [BCY18437]

Further lines, the binder ahead of its results:

Binder | Kd [nM]
ACNLQAPCMLTGK[Chg]CA-NH2 (linker 2-8-15 via TATA; N-terminus assumed; SMILES CSCC[C@@H]1NC(=O)[C@@H]2CSCCC(=O)N3CN(CN(C3)C(=O)CCSC[C@@H](C(=O)N[C@@H](C)C(N)=O)NC(=O)[C@H](C3CCCCC3)NC(=O)[C@H](CCCCN)NC(=O)CNC(=O)[C@H]([C@@H](C)O)NC(=O)[C@H](CC(C)C)NC1=O)C(=O)CCSC[C@H](NC(=O)[C@H](C)N)C(=O)N[C@@H](CC(N)=O)C(=O)N[C@@H](CC(C)C)C(=O)N[C@@H](CCC(N)=O)C(=O)N[C@@H](C)C(=O)N1CCC[C@H]1C(=O)N2, scaffold TATA) [BCY18326] | 2780
ACNLQAPCM[tBuAla]TGKVCA-NH2 (linker 2-8-15 via TATA, scaffold TATA) [BCY18320] | 622
ACNLQAPCMLTG[hArg]VCA-NH2 (linker 2-8-15 via TATA; N-terminus assumed; SMILES CSCC[C@@H]1NC(=O)[C@@H]2CSCCC(=O)N3CN(CN(C3)C(=O)CCSC[C@@H](C(=O)N[C@@H](C)C(N)=O)NC(=O)[C@H](C(C)C)NC(=O)[C@H](CCCCNC(=N)N)NC(=O)CNC(=O)[C@H]([C@@H](C)O)NC(=O)[C@H](CC(C)C)NC1=O)C(=O)CCSC[C@H](NC(=O)[C@H](C)N)C(=O)N[C@@H](CC(N)=O)C(=O)N[C@@H](CC(C)C)C(=O)N[C@@H](CCC(N)=O)C(=O)N[C@@H](C)C(=O)N1CCC[C@H]1C(=O)N2, scaffold TATA) [BCY18328] | 887
Ac-CN[Cba]PDYLC[dA]DEYC-NH2 (linker 1-8-13 via TATA; SMILES CC(=O)N[C@H]1CSCCC(=O)N2CN3CN(C2)C(=O)CCSC[C@H](NC(=O)[C@H](CC(C)C)NC(=O)[C@H](Cc2ccc(O)cc2)NC(=O)[C@H](CC(=O)O)NC(=O)[C@@H]2CCCN2C(=O)[C@H](CC2CCC2)NC(=O)[C@H](CC(N)=O)NC1=O)C(=O)N[C@H](C)C(=O)N[C@@H](CC(=O)O)C(=O)N[C@@H](CCC(=O)O)C(=O)N[C@@H](Cc1ccc(O)cc1)C(=O)N[C@H](C(N)=O)CSCCC3=O, scaffold TATA) [BCY18435] | 91
ACNLQAPCM[Cha]TGKVCA-NH2 (linker 2-8-15 via TATA; also: Cha: filing contradicts itself on L or D, scaffold TATA) [BCY18321] | 548
ACNLQAPCMLTG[Agb]VCA-NH2 (linker 2-8-15 via TATA; N-terminus assumed; SMILES CSCC[C@@H]1NC(=O)[C@@H]2CSCCC(=O)N3CN(CN(C3)C(=O)CCSC[C@@H](C(=O)N[C@@H](C)C(N)=O)NC(=O)[C@H](C(C)C)NC(=O)[C@H](CCNC(=N)N)NC(=O)CNC(=O)[C@H]([C@@H](C)O)NC(=O)[C@H](CC(C)C)NC1=O)C(=O)CCSC[C@H](NC(=O)[C@H](C)N)C(=O)N[C@@H](CC(N)=O)C(=O)N[C@@H](CC(C)C)C(=O)N[C@@H](CCC(N)=O)C(=O)N[C@@H](C)C(=O)N1CCC[C@H]1C(=O)N2, scaffold TATA) [BCY18324] | 1500
ACNLQAPCMLTGK[Tle]CA-NH2 (linker 2-8-15 via TATA, scaffold TATA) [BCY18325] | 854
